Experimental data: publication PMC10397247

Assays:
Test in all cases: two-hybrid library CCmax;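 further: natural log of median RNA to DNA barcode read ratio; higher means stronger binding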
4H2124-AA = molecular target: T1, 4H2124-AA
T1 chain: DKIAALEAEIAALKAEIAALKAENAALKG

4H2165-AA = molecular target: T2, 4H2165-AA; conditions: mean of both orientations
T2 chain: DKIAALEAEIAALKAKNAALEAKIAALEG

4H2253-AA = molecular target: T3, 4H2253-AA; conditions: mean of both orientations
T3 chain: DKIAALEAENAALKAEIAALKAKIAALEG

4H2330-AA = molecular target: T4, 4H2330-AA; conditions: mean of both orientations
T4 chain: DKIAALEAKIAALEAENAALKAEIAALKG

4H2343-AA = molecular target: T5, 4H2343-AA; conditions: mean of both orientations
T5 chain: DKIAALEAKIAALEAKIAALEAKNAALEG

4H2466-AA = molecular target: T6, 4H2466-AA; conditions: mean of both orientations
T6 chain: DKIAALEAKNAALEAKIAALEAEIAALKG

4H249-AA = molecular target: T7, 4H249-AA; conditions: mean of both orientations
T7 chain: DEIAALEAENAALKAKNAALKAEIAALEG

4H2592-AA = molecular target: T8, 4H2592-AA; conditions: mean of both orientations
T8 chain: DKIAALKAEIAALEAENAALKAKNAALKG

4H2732-AA = molecular target: T9, 4H2732-AA; conditions: mean of both orientations
T9 chain: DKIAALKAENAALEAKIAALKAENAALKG

4H2774-AA = molecular target: T10, 4H2774-AA; conditions: mean of both orientations
T10 chain: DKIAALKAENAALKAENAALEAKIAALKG

4H2931-AA = molecular target: T11, 4H2931-AA; conditions: mean of both orientations
T11 chain: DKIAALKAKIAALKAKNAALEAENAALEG

4H3001-AA = molecular target: T12, 4H3001-AA; conditions: mean of both orientations
T12 chain: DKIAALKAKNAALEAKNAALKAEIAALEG

4H3015-AA = molecular target: T13, 4H3015-AA
T13 chain: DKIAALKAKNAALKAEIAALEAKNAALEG

4H3073-AA = molecular target: T14, 4H3073-AA
T14 chain: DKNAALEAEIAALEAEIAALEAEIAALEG

4H3438-AA = molecular target: T15, 4H3438-AA; conditions: mean of both orientations
T15 chain: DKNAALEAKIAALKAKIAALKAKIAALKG

4H347-AA = molecular target: T16, 4H347-AA; conditions: mean of both orientations
T16 chain: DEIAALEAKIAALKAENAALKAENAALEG

4H406-AA = molecular target: T17, 4H406-AA; conditions: mean of both orientations
T17 chain: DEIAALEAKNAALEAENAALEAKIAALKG

4H452-AA = molecular target: T18, 4H452-AA; conditions: mean of both orientations
T18 chain: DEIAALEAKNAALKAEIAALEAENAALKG

4H56-AA = molecular target: T19, 4H56-AA; conditions: mean of both orientations
T19 chain: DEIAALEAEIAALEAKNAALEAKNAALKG

4H_APH = molecular target: T20, 4H_APH; conditions: mean of both orientations
T20 chain: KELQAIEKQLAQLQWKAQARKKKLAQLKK

4H_BCR = molecular target: T21, 4H_BCR; conditions: mean of both orientations
T21 chain: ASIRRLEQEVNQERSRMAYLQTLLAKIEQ

4H_GCN4 = conditions: mean of both orientations
Sequence of 4H_GCN4 (chain, as listed by the source): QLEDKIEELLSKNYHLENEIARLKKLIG

GCN2_T = molecular target: GCN2_T

DKIAALEAEIAALKAEIAALKAENAALKG [4H2124-AA]
interaction score (4H2124-AA): 1.61
interaction score (4H2165-AA): -1.36
interaction score (4H2253-AA): -1.14
interaction score (4H2330-AA): -1.05
interaction score (4H2343-AA): -0.871
interaction score (4H2466-AA): -1.16
interaction score (4H249-AA): -1.78
interaction score (4H2592-AA): -0.666
interaction score (4H2732-AA): -1.2
interaction score (4H2774-AA): -1.38
interaction score (4H2931-AA): -1.45
interaction score (4H3001-AA): -1.89
interaction score (4H3015-AA): -1.19
interaction score (4H3073-AA): 1.36
interaction score (4H3438-AA): -0.0325
interaction score (4H347-AA): -1.2
interaction score (4H406-AA): -1.71
interaction score (4H452-AA): -1.95
interaction score (4H56-AA): -1.73
interaction score (4H_APH): -1.67
interaction score (4H_BCR): -2.09
interaction score (4H_GCN4): -1.93
interaction score (GCN2_T): -1.07
